T1: Rat C8 ghrelin (28 amino acids, C8-acylated) (rat, UniProt Q9QYH7 24-51, C8-acylated (n-octanoyl; octanoylated at Ser3 as told for rat ghrelin in paragraph 40))
T1 construct: mature; the assay used the 28-residue peptide; also called C8-acylated rat ghrelin
T1 peptide (looked up): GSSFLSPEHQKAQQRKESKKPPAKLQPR


Tests used:
[1] = biological target: T2, C8 acylated human ghrelin (1-28) (human, n-octanoyl group on the serine at position three (Ser3)); assay: KinExA solution equilibrium; constant Fab, ghrelin titrated, free Fab captured on biotin-C8-ghrelin streptavidin beads
T2 construct: 28-residue peptide hormone; In the first KinExA experiment a biotinylated form was on the beads and the unlabelled peptide was titrated in solution; also called Human C8 ghrelin; human C8 acylated ghrelin (1-28)
Method: The KinExA 3000 instrument, manufactured by Sapidyne, is used to measure binding kinetics. Briefly, streptavidin is covalently coupled to azlactone beads. Biotinylated C8 acylated human ghrelin (1-28) is subsequently bound to these streptavidin beads. The binding of free anti-ghrelin Fab to the beads is detected on the instrument.
To measure Kds, individual tubes containing a constant concentration of 20-100 pM of Fab with decreasing serially diluted C8 acylated human ghrelin (1-28) are incubated for 18 h at 20° C. in 0.1% BSA, PBS. […] For example, clone 4a1 is used at a constant concentration of 20 pM and individual tubes are incubated with 0-20 nM of ghrelin. Incubations for other Fabs are set in a similar manner. After incubation, free Fab in each equilibrated sample is determined on the KinExA 3000 instrument according to the manufacturer's instructions. Kd values are determined using the KinExA 3000 software.

[2] = biological target: T2, C8 acylated human ghrelin (1-28); assay: BIAcore SPR; Mab amine-coupled to CM5 chip, ghrelin injected, n = 2
Method: (§1) The affinity (Kd) of humanized C2 anti-ghrelin Mabs is measured using a BIAcore® 2000 instrument containing a CM5 sensor chip. The BIAcore® utilizes the optical properties of surface plasmon resonance to detect alterations in protein concentration of interacting molecules within a dextran biosensor matrix. Except where noted, all reagents and materials are purchased from BIAcore® AB (Uppsala, Sweden). All measurements are performed at about 25° C. All samples containing either rat or human ghrelin (full length, C8- or C10-acylated, or desacylated) and anti-ghrelin Fab or Mab are diluted in HBS-EP buffer (150 mM sodium chloride, 3 mM EDTA, 0.005% (w/v) surfactant P-20, and 10 mM HEPES, pH 7.4). A capture antibody, goat anti-mouse kappa (Southern Biotechnology, Inc), or goat anti-mouse Fc gamma (Jackson ImmunoResearch), is immobilized onto flow cells using amine-coupling chemistry. Flow cells (1-4) are activated for 7 minutes with a 1:1 mixture of 0.1 M N-hydroxysuccinimide and 0.1 M 3-(N,N-dimethylamino)propyl-N-ethylcarbodiimide at a flow rate of 10 μl/min. The capture antibody, for example goat anti-mouse kappa, is diluted to 30 μg/mL in 10 mM sodium acetate, pH 4.5, and manually injected over all four flow cells at a flow rate of 10 μL/min. The surface density is monitored, and additional capture antibody is injected as needed to each individual cell until all flow cells reach a surface density of 4500-5000 response units (RU). Surfaces are blocked with a seven minute injection of 1 M ethanolamine-HCl, pH 8.5(10 μL/min). To ensure complete removal of any noncovalently bound capture antibody, 15 μL of 10 mM glycine, pH 1.5, are injected twice. Running buffer for kinetic experiments is HBS-EP buffer (150 mM sodium chloride, 3 mM EDTA, 0.005% (w/v) surfactant P-20, and 10 mM HEPES, pH 7.4). For C2_{—}4A1, 5A1, and 7A1, the antibody is directly coupled to a CM5 chip using the amine-coupling chemistry described above, aiming for a surface density of between 800-1000 RU.
(§2) Collection of kinetic binding data is performed at maximum flow rate (100 μL/min) and a low surface density to minimize mass transport effects.

[3] = biological target: T1, Rat C8 ghrelin (28 amino acids, …); assay: as above
Method: as §1, §2

T2 sequence (peptide, as listed by the source): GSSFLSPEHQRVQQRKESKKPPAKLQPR

Binder	Kd [1]	Kd [2]	koff [2]	kon [2]	other results
Humanized, affinity matured C2 anti-ghrelin Fab 7b2 (Fab, V domains shown, Fab; The constant domains are not described) VH: QVQLVQSGAEVKKPGASVKVSCKATGYIFTGYWIEWVRQAPGQGLEWMGDILPGSGSPNYNEKFKGRVTMTTDTSTSTAYMELRSLRSDDTAVYYCARYPIFRLRTERIAEWGQGTLVTVSS VL: DIVMTQSPDSLAVSLGERATINCRASKSVSLLGYSYMHWYQQKPGQPPKLLIYFASNLESGVPDRFSGSGSGTDFTLTISSLQAEDVAVYYCQHSIEEPYTFGQGTKLEIK	0.0253 nM				
Humanized, affinity matured C2 anti-ghrelin Fab 5a1 (Fab, V domains shown, Fab; The constant domains are not described for this clone; also called Fab C2-5a1) VH: QVQLVQSGAEVKKPGASVKVSCKATGYIFTGYWIEWVRQAPGQGLEWMGDILPGSGSPNYNEKFKGRVTMTTDTSTSTAYMELRSLRSDDTAVYYCARYPIFRLRTERIAEWGQGTLVTVSS VL: DIVMTQSPDSLAVSLGERATINCRASKSVSLSGYSYMHWYQQKPGQPPKLLIYFASNLESGVPDRFSGSGSGTDFTLTISSLQAEDVAVYYCQHSIEEPYTFGQGTKLEIK	0.001 nM				
Humanized, affinity matured C2 anti-ghrelin Fab 7a1 (Fab, V domains shown, Fab; The constant domains are not described for this clone) VH: QVQLVQSGAEVKKPGASVKVSCKATGYIFTGYWIEWVRQAPGQGLEWMGDILPGSGSPNYNEKFKGRVTMTTDTSTSTAYMELRSLRSDDTAVYYCARYPIFRPRTERIAYWGQGTLVTVSS VL: DIVMTQSPDSLAVSLGERATINCRASKSVSLLGYSYMHWYQQKPGQPPKLLIYFASNLESGVPDRFSGSGSGTDFTLTISSLQAEDVAVYYCQHSVEEPYTFGQGTKLEIK	0.0042 nM				
Mab C2_5A1 (humanized, affinity matured VH/VL (Fab C2-5a1 sequences) with rat Fc chimeric C2 anti-ghrelin antibody) (antibody, V domains shown, Humanized VH/VL with rat Fc; also called C2-5a1 antibody) VH: QVQLVQSGAEVKKPGASVKVSCKATGYIFTGYWIEWVRQAPGQGLEWMGDILPGSGSPNYNEKFKGRVTMTTDTSTSTAYMELRSLRSDDTAVYYCARYPIFRLRTERIAEWGQGTLVTVSS VL: DIVMTQSPDSLAVSLGERATINCRASKSVSLSGYSYMHWYQQKPGQPPKLLIYFASNLESGVPDRFSGSGSGTDFTLTISSLQAEDVAVYYCQHSIEEPYTFGQGTKLEIK		0.013 nM	0.00012 s⁻¹	8.6e+06 M⁻¹ s⁻¹	Kd [3]: 0.02 nM; koff [3]: 0.00012 s⁻¹; kon [3]: 6.6e+06 M⁻¹ s⁻¹
Mab C2_7A1 (human VH/VL with rat Fc chimera) (antibody, V domains shown, Humanized VH/VL with rat Fc; The Mab is tied to the Fab 7a1 variable regions by its clone name only) VH: QVQLVQSGAEVKKPGASVKVSCKATGYIFTGYWIEWVRQAPGQGLEWMGDILPGSGSPNYNEKFKGRVTMTTDTSTSTAYMELRSLRSDDTAVYYCARYPIFRPRTERIAYWGQGTLVTVSS VL: DIVMTQSPDSLAVSLGERATINCRASKSVSLLGYSYMHWYQQKPGQPPKLLIYFASNLESGVPDRFSGSGSGTDFTLTISSLQAEDVAVYYCQHSVEEPYTFGQGTKLEIK		0.012 nM	0.00013 s⁻¹	1e+07 M⁻¹ s⁻¹	

From patent publication US20080118498A1 (Eli Lilly, published 2008)
